This assay deals with Trimeric form of SARS-CoV-2 RBD (T-RBD) (SARS-CoV-2 | not stated). The assay can be described thus: western blot under reduced and nonreduced conditions. Background: Immunoblotting shows a protein as a band on a membrane.

In paper PMC8426336 one finds stoichiometry N data, which are given here for one substance.

On to Trimeric form of SARS-CoV-2 RBD (T-RBD), for which the stoichiometry N (usually a count of units in the complex or per binding partner) is 3.
